In US20070259402:

Assays:
[1] = target: precursor (proFIX) of FIX alone produced in the presence of PACE-SOL (BeneFIX®) (UniProt P00740)
[2] = tested on: proFIX-Fc (FIX-Fc retaining the FIX propeptide; dimer or monomer form not given)

precursor (proFIX) of FIX alone produced in the presence of PACE-SOL (BeneFIX®), sequence (P00740 whole entry, looked up): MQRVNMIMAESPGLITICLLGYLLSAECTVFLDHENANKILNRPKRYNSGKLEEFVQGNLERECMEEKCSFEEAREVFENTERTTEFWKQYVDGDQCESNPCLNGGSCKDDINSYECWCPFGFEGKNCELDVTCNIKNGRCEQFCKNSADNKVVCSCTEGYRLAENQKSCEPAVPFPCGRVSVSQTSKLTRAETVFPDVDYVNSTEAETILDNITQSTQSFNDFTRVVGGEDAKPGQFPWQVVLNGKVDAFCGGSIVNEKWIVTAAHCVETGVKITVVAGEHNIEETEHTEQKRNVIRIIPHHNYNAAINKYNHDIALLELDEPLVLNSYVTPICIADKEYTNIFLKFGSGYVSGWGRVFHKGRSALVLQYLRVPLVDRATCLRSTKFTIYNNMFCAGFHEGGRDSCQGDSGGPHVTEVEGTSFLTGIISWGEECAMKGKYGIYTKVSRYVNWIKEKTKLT

For “PACE-SOL (soluble form of human PACE, amino acids 1-715)”, the “peptide mapping (tryptic digest, LC/MS) for the propeptide indicator peptide (PIP)” value [1] was “FIX alone produced in the presence of PACE-SOL (BeneFIX®) appeared identical to FIX-Fc monomer produced with PC5 (FIG. 13), displaying no detectable PIP” and the “Propeptide Processing (Western blotting), CHO, transient transfection” value [2] was “processes”.
